# Test results from US20190112340A1.
# pKd: −log10 of the molar value.
# What was measured:
# sc9-10 Cav1only 99-360 = assay: ELISA after 1 week at 4 °C
# [1] = target: RSV F DS-Cav1 (human RSV subtype A (strain A2)) (UniProt P03420); assay: ELISA after 1 week at 4 °C
# sc9-10 Cav1only 100-360 = assay: ELISA after 1 week at 4 °C
# RSVF dFP = assay: ELISA after 1 week at 4 °C
# sc9-10 Cav1only 98-360 = assay: ELISA after 1 week at 4 °C
# [2] = target: sc9-10 DS-Cav1 A149C, Y458C S46G-N67I-E92D-S215P-K465Q (A2); assay: BLI (Octet), antibody reactivity over time at 60 °C
# [3] = target: sc9-10 DS-Cav1 N183GC,N428C; assay: as above
# [4] = target: RSV F DS-Cav1 (human RSV subtype A (strain A2)) (UniProt P03420); assay: as above
# [5] = target: sc9-10 DS-Cav1 N183GC, N428C S46G-N67I-E92D-S215P-K465Q (A2); assay: as above
# [6] = target: sc9-10 DS-Cav1 A149C, Y458C S46G-E92D-S215P-K465Q (A2); assay: as above
# [7] = target: sc9-10 A DS-Cav1 A149C, Y458C; assay: as above
# [8] = target: sc9-10 DS-Cav1 A149C, Y458C S46G-S215P-K465Q (A2); assay: as above
# sc9-10 Cav1only 369-455 = assay: ELISA after 1 week at 4 °C
# [9] = target: sc9-10 N183GC N428C Long CAV1only; assay: ELISA after 1 week at 4 °C
# sc9-10 Cav1only = assay: ELISA after 1 week at 4 °C
# sc9-10 Cav1only 146-458 = assay: ELISA after 1 week at 4 °C
# sc9-10 Cav1only 99-361 = assay: ELISA after 1 week at 4 °C
# sc9-10 Cav1only 100-361 = assay: ELISA after 1 week at 4 °C
# sc9-10 Cav1only 98-362 = assay: ELISA after 1 week at 4 °C
# sc9-10 Cav1only 100-362 = assay: ELISA after 1 week at 4 °C
# [10] = target: sc9-10 A149C Y458C Long CAV1only; assay: ELISA after 1 week at 4 °C
# sc9-10 Cav1only 98-361 = assay: ELISA after 1 week at 4 °C
# RSVF Cav1only = assay: ELISA after 1 week at 4 °C
# sc9-10 Cav1only 99-362 = assay: ELISA after 1 week at 4 °C
# [11] = target: bRSV F RB94 DS-Cav1 (bovine RSV, strain RB94) (UniProt P23728); assay: Fab binding to purified bRSV F trimer (Octet BLI as in Example 1)
# [12] = target: bRSV F 391-2 DS-Cav1 (bovine RSV, strain 391-2) (UniProt P22167); assay: as above
# [13] = target: bRSV F ATue51908 DS-Cav1 (bovine RSV, strain ATue51908) (UniProt P22167); assay: as above
# [14] = target: bRSV F ATue51908 sc9-10 DS-Cav1 A149C Y458C (bovine RSV, strain ATue51908 (NP_048055.1)); assay: as above
# [15] = target: bRSV F 391-2 sc9 DS-Cav1 Q98C Q361C (bovine RSV, strain 391-2) (UniProt P22167); assay: as above
# [16] = target: bRSV F strain 391-2 sc9-10, DS-Cav1, Q98C-Q361C (bovine RSV, strain 391-2); assay: as above
# sc8 DS-Cav1 = assay: BLI (Octet), F on Ni-NTA tips, Fab in solution
# [17] = target: sc9-10 DS-Cav1 Q98C, Q361C S46G-E92D-L95M-S215P-I217P-I221M-R429K-K465Q (Long (VR26)); assay: BLI (Octet), F on Ni-NTA tips, Fab in solution
# sc10 DS-Cav1 = assay: BLI (Octet), F on Ni-NTA tips, Fab in solution
# [18] = target: RSV F sc9-9 DS-Cav1 (human RSV subtype A (strain A2)) (UniProt P03420); assay: BLI (Octet), F on Ni-NTA tips, Fab in solution
# [19] = target: sc9-10 DS-Cav1 Q98C, Q361C L95M-I221M-R429K (B18537); assay: BLI (Octet), F on Ni-NTA tips, Fab in solution
# sc9 DS-Cav1-105Q = assay: BLI (Octet), F on Ni-NTA tips, Fab in solution
# [20] = target: sc9-10 DS-Cav1 A149C, Y458C S46G-N67I-E92D-S215P-K465Q (A2); assay: BLI (Octet), F on Ni-NTA tips, Fab in solution
# sc11 DS-Cav1 = assay: BLI (Octet), F on Ni-NTA tips, Fab in solution
# [21] = target: sc9-10 DS-Cav1 N183GC,N428C; assay: BLI (Octet), F on Ni-NTA tips, Fab in solution
# [22] = target: RSV F sc9 DS-Cav1 (human RSV subtype A (strain A2)); assay: BLI (Octet), F on Ni-NTA tips, Fab in solution
# sc9-24 DS-Cav1 = assay: BLI (Octet), F on Ni-NTA tips, Fab in solution
# [23] = target: RSV F DS-Cav1 (human RSV subtype A (strain A2)) (UniProt P03420); assay: BLI (Octet), F on Ni-NTA tips, Fab in solution
# [24] = target: sc9-10 DS-Cav1 N183GC, N428C S46G-N67I-E92D-S215P-K465Q (A2); assay: BLI (Octet), F on Ni-NTA tips, Fab in solution
# sc9-19 DS-Cav1 = assay: BLI (Octet), F on Ni-NTA tips, Fab in solution
# [25] = target: RSV F sc9-10 DS-Cav1 (human RSV subtype A (strain A2)); assay: BLI (Octet), F on Ni-NTA tips, Fab in solution
# [26] = target: sc9-10 DS-Cav1 A149C, Y458C S46G-E92D-S215P-K465Q (A2); assay: BLI (Octet), F on Ni-NTA tips, Fab in solution
# [27] = target: sc9-10 A DS-Cav1 A149C, Y458C; assay: BLI (Octet), F on Ni-NTA tips, Fab in solution
# [28] = target: sc9-10 DS-Cav1 A149C, Y458C S46G-S215P-K465Q (A2); assay: BLI (Octet), F on Ni-NTA tips, Fab in solution
substance,measurement,setting,value
D25 antibody,ELISA signal (antigenicity),sc9-10 Cav1only 99-360,1.4
same,ELISA signal (antigenicity),[1],2.13
same,ELISA signal (antigenicity),sc9-10 Cav1only 100-360,1.76
same,ELISA signal (antigenicity),RSVF dFP,0.902
same,ELISA signal (antigenicity),sc9-10 Cav1only 98-360,1.14
same,T1/2 of D25 reactivity at 60 °C,[2],26.4 h
same,T1/2 of D25 reactivity at 60 °C,[3],42.4 h
same,T1/2 of D25 reactivity at 60 °C,[4],3.2 h
same,T1/2 of D25 reactivity at 60 °C,[5],23.3 h
same,T1/2 of D25 reactivity at 60 °C,[6],26.7 h
same,T1/2 of D25 reactivity at 60 °C,[7],16.5 h
same,T1/2 of D25 reactivity at 60 °C,[8],23.4 h
MPE8 (antibody),ELISA signal (antigenicity),sc9-10 Cav1only 369-455,2.32
same,ELISA signal (antigenicity),[9],0.228
same,ELISA signal (antigenicity),sc9-10 Cav1only,3.54
same,ELISA signal (antigenicity),sc9-10 Cav1only 99-360,0.625
same,ELISA signal (antigenicity),sc9-10 Cav1only 146-458,1.85
same,ELISA signal (antigenicity),sc9-10 Cav1only 99-361,2.66
same,ELISA signal (antigenicity),sc9-10 Cav1only 100-361,0.786
same,ELISA signal (antigenicity),sc9-10 Cav1only 98-362,0.845
same,ELISA signal (antigenicity),sc9-10 Cav1only 100-362,0.298
same,ELISA signal (antigenicity),[10],2.5
same,ELISA signal (antigenicity),[1],2.16
same,ELISA signal (antigenicity),sc9-10 Cav1only 100-360,1.28
same,ELISA signal (antigenicity),sc9-10 Cav1only 98-361,1.4
same,ELISA signal (antigenicity),RSVF Cav1only,3.08
same,ELISA signal (antigenicity),sc9-10 Cav1only 99-362,1.28
same,ELISA signal (antigenicity),RSVF dFP,2.77
same,ELISA signal (antigenicity),sc9-10 Cav1only 98-360,0.734
same,T1/2 of MPE8 reactivity at 60 °C,[2],12.7 h
same,T1/2 of MPE8 reactivity at 60 °C,[3],48.3 h
same,T1/2 of MPE8 reactivity at 60 °C,[4],2 h
same,T1/2 of MPE8 reactivity at 60 °C,[5],35.1 h
same,T1/2 of MPE8 reactivity at 60 °C,[6],12.6 h
same,T1/2 of MPE8 reactivity at 60 °C,[7],14.4 h
same,T1/2 of MPE8 reactivity at 60 °C,[8],11.2 h
MPE8 Fab,pKd,[11],9.70
same,pKd,[12],9.70
same,pKd,[13],9.70
same,pKd,[14],9.30
same,pKd,[15],9.40
same,pKd,[16],9.10
same,pKd,sc8 DS-Cav1,9.30
same,pKd,[17],9.70
same,pKd,sc10 DS-Cav1,9.10
same,pKd,[18],> 11.00
same,pKd,[19],9.70
same,pKd,sc9 DS-Cav1-105Q,9.10
same,pKd,[20],9.70
same,pKd,sc11 DS-Cav1,8.80
same,pKd,[21],10.00
same,pKd,[22],9.10
same,pKd,sc9-24 DS-Cav1,9.10
same,pKd,[23],9.30
same,pKd,[24],9.70
same,pKd,sc9-19 DS-Cav1,9.00
same,pKd,[25],9.10
same,pKd,[26],9.70
same,pKd,[27],10.00
same,pKd,[28],9.40
Mota (antibody),ELISA signal (antigenicity),sc9-10 Cav1only 369-455,2.5
same,ELISA signal (antigenicity),[9],2.07
same,ELISA signal (antigenicity),sc9-10 Cav1only,3.59
same,ELISA signal (antigenicity),sc9-10 Cav1only 99-360,1.11
same,ELISA signal (antigenicity),sc9-10 Cav1only 146-458,1.95
same,ELISA signal (antigenicity),sc9-10 Cav1only 99-361,2.71
same,ELISA signal (antigenicity),sc9-10 Cav1only 100-361,2.8
same,ELISA signal (antigenicity),sc9-10 Cav1only 98-362,0.828
same,ELISA signal (antigenicity),sc9-10 Cav1only 100-362,1.53
same,ELISA signal (antigenicity),[10],2.55
same,ELISA signal (antigenicity),[1],1.72
same,ELISA signal (antigenicity),sc9-10 Cav1only 100-360,1.61
same,ELISA signal (antigenicity),sc9-10 Cav1only 98-361,2.24
same,ELISA signal (antigenicity),RSVF Cav1only,3.35
same,ELISA signal (antigenicity),sc9-10 Cav1only 99-362,1.38
same,ELISA signal (antigenicity),RSVF dFP,3.42
same,ELISA signal (antigenicity),sc9-10 Cav1only 98-360,1.04
